Experimental findings from article PMC7658645 are described below.

Experiment in all cases: dot blot (nitrocellulose filter binding)
Holding throughout (settings): 5 mM Mg2+; Dot blot/aptamer blot: 20 mM Tris-HCl, 100 mM NaCl, 5 mM MgCl2, 0.1% BSA (pH not given), 50 nM aptamer in dot blot (membranes equilibrated at 4 C), blots 1 h …

Data set [1] deals with GST (glutathione S-transferase tag) (UniProt P08515).
Data set [2] relates to MBP (maltose-binding protein tag).
In data set [3] the target is His-TrxA (His-tagged thioredoxin 1) (UniProt P0AA25).

“ATACGACTCACTATTAGGGACAAAGCTGACAACCCTTTCATAATCTAACTACATTTATGTGCTAGACTACTGACTAC [G1]” showed a Kd in data set [1] of 59 nM.
For the sequence “ATACGACTCACTATTAGGGACCACATAAACATGCATCGCTCAATAACGGGATATTGTTGTGCTAGACTACTGACTACAA [M1]”, in data set [2], the dissociation constant Kd came to 86 nM.
Turning to “ATACGACTCACTATTAGGGATGTCCACCATATAGATCGATTTAAGTCCCTCGTTATTAATGCTAGACTACTGACTACAA [H1]”, the Kd in data set [3] amounted to 173 nM.
